Reference: US6653282B1, “Peptide Compositions which induce immune tolerance and methods of use” (priority 1996, dated 2003)
Bridge positions count the residues as written; N and C are the ends. Square brackets hold non-standard residues; d marks the D form. Ends that are not written are not given here. Pen = CC(C)(S)[C@H](N)C(=O)O

B1: cLBE-L (peptide)
peptide: [Pen]DLSYSLDDLRC
modifications: disulfide 1-12; not fully specified
B2: LAB (peptide)
peptide: ITDGEATDSGNIDAAKDIIYIIGI
B3: LAB.2 (peptide)
peptide: GVDVDQDGETELIGAPLFYGEQRG
B4: LBE (peptide)
peptide: DLSYSLDDLRNVKKLGGDLLRALNE
B5: cLBE-C (peptide)
peptide: [Pen]DLRNVKKLGGC
modifications: disulfide 1-12; not fully specified
B6: cLAB-R (peptide)
peptide: [Pen]AKDIIYIIGIC
modifications: disulfide 1-12; not fully specified
B7: cLAB-L (peptide)
peptide: XITDGEATDSGC
modifications: not fully specified; cyclic: disulfide bridge between the amino-terminal penicillamine (Xaa in the Sequence Listing) or cysteine and the carboxy-terminal cysteine
B8: cLBE-R (peptide)
peptide: [Pen]GGLLRALNEC
modifications: disulfide 1-11; not fully specified
B9: cLAB-C (peptide)
peptide: [Pen]DSGNIDAAKDC
modifications: disulfide 1-12; not fully specified
B10: cLAB.2-L (peptide)
peptide: [Pen]GVDVDQDGETC
modifications: disulfide 1-12; not fully specified
B11: EBL (peptide)
peptide: ENLARLLDGGLKKVNRLDDLSYSLD
B12: cIB-R (peptide)
peptide: CLPRGGSVLVTC
modifications: disulfide 1-12; not fully specified
B13: IE (peptide)
peptide: DQPKLLGIETPLPKKELLLPGNNRK
B14: IB (peptide)
peptide: QTSVSPSKVILPRGGSVLVTG
B15: cIB-C (peptide)
peptide: [Pen]PSKVILPRGGC
modifications: disulfide 1-12; not fully specified
B16: cIE-C (peptide)
peptide: [Pen]ETPLPKKELLC
modifications: disulfide 1-12; not fully specified
B17: cIB-L (peptide)
peptide: [Pen]QTSVSPSKVIC
modifications: disulfide 1-12; not fully specified

Target: intercellular adhesion molecule (ICAM-1) (human, UniProt P05362 28-532)
Assay: cell-based or functional assay

Sequence of intercellular adhesion molecule (ICAM-1) (P05362 28-532): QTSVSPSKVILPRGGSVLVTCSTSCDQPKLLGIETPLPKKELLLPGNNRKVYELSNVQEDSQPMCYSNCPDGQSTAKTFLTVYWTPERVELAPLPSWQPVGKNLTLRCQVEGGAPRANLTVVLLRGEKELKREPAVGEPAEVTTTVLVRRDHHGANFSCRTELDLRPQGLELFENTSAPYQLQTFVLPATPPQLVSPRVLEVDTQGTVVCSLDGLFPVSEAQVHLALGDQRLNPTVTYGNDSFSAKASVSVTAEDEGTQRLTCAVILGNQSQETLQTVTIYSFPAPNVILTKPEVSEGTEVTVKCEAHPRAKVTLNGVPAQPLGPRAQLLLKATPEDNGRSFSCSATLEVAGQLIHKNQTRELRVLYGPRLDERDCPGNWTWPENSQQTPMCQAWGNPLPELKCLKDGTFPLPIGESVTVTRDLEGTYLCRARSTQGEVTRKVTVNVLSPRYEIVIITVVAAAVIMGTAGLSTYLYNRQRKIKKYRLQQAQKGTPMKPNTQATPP

| Clumping Index | Binder |
| --- | --- |
| 75 clumping index (0-100) | B1 |
| 75 clumping index (0-100) | B2 |
| 48 clumping index (0-100) | B3 |
| 73 clumping index (0-100) | B4 |
| 82 clumping index (0-100) | B5 |
| 77 clumping index (0-100) | B6 |
| 78 clumping index (0-100) | B7 |
| 100 clumping index (0-100) | B8 |
| 80 clumping index (0-100) | B9 |
| 50 clumping index (0-100) | B10 |
| 100 clumping index (0-100) | B11 |

Target: leukocyte function-associated antigen (LFA-1) (human, UniProt P20701 26-1170; P05107 23-769)
Assay: cell-based or functional assay

Sequence of leukocyte function-associated antigen (LFA-1) (P20701 26-1170, chain 1 of 2): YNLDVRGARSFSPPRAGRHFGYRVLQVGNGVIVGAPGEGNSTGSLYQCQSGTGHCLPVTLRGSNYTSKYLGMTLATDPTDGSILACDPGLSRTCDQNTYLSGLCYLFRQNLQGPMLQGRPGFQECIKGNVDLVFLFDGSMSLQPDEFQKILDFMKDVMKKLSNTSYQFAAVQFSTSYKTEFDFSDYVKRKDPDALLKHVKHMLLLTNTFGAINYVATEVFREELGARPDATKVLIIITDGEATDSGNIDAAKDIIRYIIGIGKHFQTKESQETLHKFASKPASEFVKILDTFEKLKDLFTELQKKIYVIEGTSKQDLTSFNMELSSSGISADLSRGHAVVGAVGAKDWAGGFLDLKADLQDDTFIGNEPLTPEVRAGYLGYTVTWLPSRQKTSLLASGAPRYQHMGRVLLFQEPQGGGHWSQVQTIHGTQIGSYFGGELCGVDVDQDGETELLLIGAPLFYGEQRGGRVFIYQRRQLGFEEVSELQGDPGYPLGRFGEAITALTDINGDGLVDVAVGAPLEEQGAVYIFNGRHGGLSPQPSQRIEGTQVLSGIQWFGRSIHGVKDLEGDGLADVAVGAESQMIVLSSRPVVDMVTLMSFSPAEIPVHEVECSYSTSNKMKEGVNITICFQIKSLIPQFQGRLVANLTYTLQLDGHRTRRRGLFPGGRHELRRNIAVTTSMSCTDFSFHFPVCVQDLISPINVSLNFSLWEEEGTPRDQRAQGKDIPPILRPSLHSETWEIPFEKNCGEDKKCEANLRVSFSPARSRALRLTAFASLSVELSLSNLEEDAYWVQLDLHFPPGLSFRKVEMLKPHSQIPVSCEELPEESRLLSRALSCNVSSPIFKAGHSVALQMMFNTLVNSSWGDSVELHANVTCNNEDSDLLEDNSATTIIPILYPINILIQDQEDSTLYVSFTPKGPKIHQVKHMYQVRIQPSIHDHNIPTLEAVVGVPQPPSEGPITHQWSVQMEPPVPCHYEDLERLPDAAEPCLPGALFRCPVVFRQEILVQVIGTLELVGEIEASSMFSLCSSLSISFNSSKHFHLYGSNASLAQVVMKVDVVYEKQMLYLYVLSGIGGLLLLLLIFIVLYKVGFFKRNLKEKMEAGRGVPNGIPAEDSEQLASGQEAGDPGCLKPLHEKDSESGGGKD
Sequence of leukocyte function-associated antigen (LFA-1) (P05107 23-769, chain 2 of 2): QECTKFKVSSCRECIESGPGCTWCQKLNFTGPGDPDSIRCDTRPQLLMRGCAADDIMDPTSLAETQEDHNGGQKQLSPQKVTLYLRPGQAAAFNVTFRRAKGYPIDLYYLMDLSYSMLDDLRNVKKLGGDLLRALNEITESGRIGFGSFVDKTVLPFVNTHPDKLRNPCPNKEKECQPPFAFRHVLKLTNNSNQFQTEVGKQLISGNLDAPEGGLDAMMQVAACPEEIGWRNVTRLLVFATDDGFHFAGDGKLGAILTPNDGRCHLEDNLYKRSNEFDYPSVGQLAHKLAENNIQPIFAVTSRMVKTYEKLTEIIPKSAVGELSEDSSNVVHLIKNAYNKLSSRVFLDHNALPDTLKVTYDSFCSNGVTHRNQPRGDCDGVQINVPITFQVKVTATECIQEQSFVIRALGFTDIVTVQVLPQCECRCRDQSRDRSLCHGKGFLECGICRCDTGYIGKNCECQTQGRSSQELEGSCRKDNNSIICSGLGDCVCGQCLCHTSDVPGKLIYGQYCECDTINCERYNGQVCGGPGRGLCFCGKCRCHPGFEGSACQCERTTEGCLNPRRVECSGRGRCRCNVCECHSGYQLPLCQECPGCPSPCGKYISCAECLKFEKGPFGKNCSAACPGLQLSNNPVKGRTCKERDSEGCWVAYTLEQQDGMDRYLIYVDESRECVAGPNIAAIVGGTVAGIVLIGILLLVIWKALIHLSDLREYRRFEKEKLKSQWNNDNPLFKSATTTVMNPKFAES

| Clumping Index | Binder |
| --- | --- |
| 73 clumping index (0-100) | B12 |
| 63 clumping index (0-100) | B13 |
| 56 clumping index (0-100) | B14 |
| 61 clumping index (0-100) | B15 |
| 23 clumping index (0-100) | B16 |
| 61 clumping index (0-100) | B17 |
